B1: scFv; the commonest letter at each place (parent)
chain 1: EVKLDETGGGLVQPGRPMKLSCVASGFTFSDYWMNWVRQSPEKGLEWVAQIRNKPYNYETYYSDSVKGRFTISRDDSKSSVYLQMNNLRVEDMGIYYCTGSYYGMDYWGQGTSVTVS
chain 2: DVVMTQTPLSLPVSLGDQASISCRSSQSLVHSNGNTYLRWYLQKPGQSPKVLIYKVSNRFSGVPDRFSGSGSGTDFTLKISRVEAEDLGVYFCSQSTHVPWTFGGGTKLEIK

How the values were obtained:
fluorescein = variants of: B1; experiment: Kd (Tite-Seq); conditions: with fluorescein; format: scFv 4-4-20, heavy + light
[1] = variants of: B1; experiment: yeast surface expression (ratio to wild type); higher = more expressed; conditions: format: scFv 4-4-20, heavy + light

Variant | Kd (fluorescein) [µM] | yeast surface expression [1]
chain 1 W33M | ≥ 10 | 0.887
chain 1 W33M M34H N35K | ≥ 10 | 0.305
chain 1 W33M M34I | ≥ 10 | 0.708
chain 1 W33M M34P | ≥ 10 | 0.576
chain 1 W33M V37E | 0.0657 | 0.701
chain 1 W33M V37L | ≥ 10 | 0.553
chain 1 W33M V37P | ≥ 10 | 0.458
chain 1 W33M W36P | ≥ 10 | 0.591
chain 1 W33N | ≥ 10 | 1.01
chain 1 W33N M34D | ≥ 10 | 0.567
chain 1 W33N M34F | ≥ 10 | 0.815
chain 1 W33N N35I | ≥ 10 | 0.657
chain 1 W33N N35M | ≥ 10 | 0.792
chain 1 W33N N35T | ≥ 10 | 0.979
chain 1 W33N V37N | ≥ 10 | 0.652
chain 1 W33N V37Q | ≥ 10 | 0.415
chain 1 W33N W36R | ≥ 10 | 0.764
chain 1 W33P | ≥ 10 | 0.803
chain 1 W33P M34H | ≥ 10 | 0.508
chain 1 W33P N35Y | 0.205 | 0.393
chain 1 W33Q | ≥ 10 | 1.01
chain 1 W33Q N35E | ≥ 10 | 0.594
chain 1 W33Q N35W | ≥ 10 | 1.01

Variant | Kd (fluorescein) [µM] | yeast surface expression [1]
chain 1 W33Q N35Y | ≥ 10 | 0.315
chain 1 W33Q W36K | ≥ 10 | 0.466
chain 1 W33Q W36S | 7.33 | 0.839
chain 1 W33Q W36T | ≥ 10 | 0.706
chain 1 W33Q W36V | ≥ 10 | 0.361
chain 1 W33R | ≥ 10 | 0.877
chain 1 W33R M34D | ≥ 10 | 0.356
chain 1 W33R M34I | ≥ 10 | 0.644
chain 1 W33R N35Y | ≥ 10 | 0.794
chain 1 W33R V37D | 0.205 | 1.19
chain 1 W33R V37W | ≥ 10 | 0.543
chain 1 W33R W36Y | ≥ 10 | 0.561
chain 1 W33S | ≥ 10 | 0.845
chain 1 W33S M34T | ≥ 10 | 0.463
chain 1 W33S N35I | ≥ 10 | 0.495
chain 1 W33S W36D | ≥ 10 | 0.562
chain 1 W33S W36I | ≥ 10 | 0.619
chain 1 W33S W36L | ≥ 10 | 0.535
chain 1 W33T | ≥ 10 | 1.02
chain 1 W33T M34S V37E | ≥ 10 | 0.787
chain 1 W33T M34W | ≥ 10 | 0.967
chain 1 W33T N35D V37W | ≥ 10 | 0.582
chain 1 W33T N35Q | ≥ 10 | 0.887

Variant | Kd (fluorescein) [µM] | yeast surface expression [1]
chain 1 W33T W36Y | ≥ 10 | 0.79
chain 1 W33V | ≥ 10 | 0.944
chain 1 W33V N35Q | ≥ 10 | 0.772
chain 1 W33V N35T | ≥ 10 | 0.89
chain 1 W33V V37F | ≥ 10 | 0.82
chain 1 W33V V37S | ≥ 10 | 0.535
chain 1 W33Y | ≥ 10 | 0.976
chain 1 W33Y M34I | ≥ 10 | 0.771
chain 1 W33Y N35R | ≥ 10 | 0.524
chain 1 W36A | ≥ 10 | 0.44
chain 1 W36C | ≥ 10 | 0.561
chain 1 W36D | ≥ 10 | 0.512
chain 1 W36D V37H | ≥ 10 | 0.21
chain 1 W36D V37M | ≥ 10 | 1.25
chain 1 W36E | ≥ 10 | 0.765
chain 1 W36F | 0.0015 | 0.954
chain 1 W36F V37C | 0.000454 | 0.75
chain 1 W36F V37N | 0.00746 | 0.509
chain 1 W36F V37Y | ≥ 10 | 0.738
chain 1 W36G | ≥ 10 | 0.534
chain 1 W36G V37N | ≥ 10 | 0.597
chain 1 W36G V37Q | ≥ 10 | 1.13
chain 1 W36H | ≥ 10 | 0.522

Variant | Kd (fluorescein) [µM] | yeast surface expression [1]
chain 1 W36H V37E | ≥ 10 | 0.267
chain 1 W36H V37F | ≥ 10 | 0.307
chain 1 W36I | 1.33 | 0.756
chain 1 W36K | ≥ 10 | 0.794
chain 1 W36K V37H | ≥ 10 | 0.773
chain 1 W36K V37N | 0.0592 | 0.168
chain 1 W36L | ≥ 10 | 0.686
chain 1 W36L V37Q | ≥ 10 | 0.537
chain 1 W36M | 0.0259 | 0.721
chain 1 W36M V37P | ≥ 10 | 0.36
chain 1 W36M V37S | ≥ 10 | 0.415
chain 1 W36M V37W | ≥ 10 | 0.496
chain 1 W36N | ≥ 10 | 0.978
chain 1 W36P | ≥ 10 | 0.871
chain 1 W36P V37Y | ≥ 10 | 0.75
chain 1 W36Q | ≥ 10 | 0.308
chain 1 W36Q V37T | ≥ 10 | 0.396
chain 1 W36R | 8.34 | 0.957
chain 1 W36S | ≥ 10 | 0.813
chain 1 W36S V37D | ≥ 10 | 1.34
chain 1 W36T | ≥ 10 | 0.497
chain 1 W36T V37D | ≥ 10 | 0.28
chain 1 W36T V37L | ≥ 10 | 0.507

Variant | Kd (fluorescein) [µM] | yeast surface expression [1]
chain 1 W36T V37M | ≥ 10 | 0.422
chain 1 W36V | ≥ 10 | 0.715
chain 1 W36Y | 0.00532 | 0.923
chain 1 W36Y V37I | 0.0205 | 0.75
chain 1 W108A | 0.00209 | 0.588
chain 1 W108A G109C | ≥ 10 | 0.197
chain 1 W108A G109H | ≥ 10 | 0.356
chain 1 W108C | 0.000646 | 0.717
chain 1 W108C G109E | ≥ 10 | 0.262
chain 1 W108D | ≥ 10 | 0.345
chain 1 W108D G109I | ≥ 10 | 0.209
chain 1 W108D G109Y | ≥ 10 | 0.271
chain 1 W108E | ≥ 10 | 0.463
chain 1 W108E G109K | ≥ 10 | 0.403
chain 1 W108E G109P | ≥ 10 | 0.356
chain 1 W108E G109T | ≥ 10 | 0.269
chain 1 W108E G109V | ≥ 10 | 0.33
chain 1 W108F | ≤ 0.000316 | 0.644
chain 1 W108G | 0.102 | 0.48
chain 1 W108G G109V | ≥ 10 | 0.228
chain 1 W108H | 0.00468 | 0.333
chain 1 W108H G109C | ≥ 10 | 0.362
chain 1 W108I | ≤ 0.000316 | 0.882

— the FLAb antibody collection (doi:10.7554/elife.23156)
